Reference: US20210277125A1 (University of California, published 2021)
Changes are numbered by the printed parent chain. Values belong to the binder of their own block, whether it stands above or below them.

Key:
[1] = target: T1, recombinant αvβ8 ectodomain (UniProt P06756 31-992; P26012 43-684, limits assumed); assay: kinetic exclusion assay (KinExA)
T1 construct: extracellular domain; the ELISA and the reporter assays say only 'recombinant αvβ8'; also called recombinant integrin αvβ8; immobilized αvβ8
Method: Affinity for the antibodies described in the Examples was determined using a kinetic exclusion assay format. KinExA (https://www.sapidyne.com). The affinity was calculated as follows: […]

[2] = target: T2, recombinant integrin αvβ6 (UniProt P06756 31-992; P18564 22-707, limits assumed); assay: ELISA: plate coated with antibody (2 µg/ml), recombinant integrin added, detected with 8B8-biotin and Streptavidin-HRP
Method: (§1) ELISA plates were coated with antibodies (2 μg/ml), washed, blocked with BSA, and then recombinant integrins were added at the indicated concentrations. After a brief incubation at RT, wells were washed and bound integrin detected with biotin conjugated anti-αv (8B8-biotin, 1 μg/ml) followed by Streptavidin-HRP. […] Antibodies were incubated at the indicated concentrations for 15 min at 4° C. and after washing detected with anti-mouse-PE.

[3] = target: recombinant integrin αvβ1 (UniProt P06756 31-992; P05556 21-728); assay: as above
Method: as §1

[4] = target: recombinant integrin αvβ5 (UniProt P06756 31-992; P18084 24-719); assay: as above
Method: as §1

[5] = target: recombinant integrin αvβ3 (UniProt P06756 31-992; P05106 27-718); assay: as above
Method: as §1

[6] = target: T3, integrin αvβ8 on human ovarian carcinoma line OVCAR3 (human, UniProt P06756 31-1048; P26012 43-769); assay: flow cytometry on OVCAR3 cells, 15 min at 4 °C, detection with anti-mouse-PE, MFI against antibody concentration, KaleidaGraph fit
T3 construct: whole, on cells; also called OVCAR3 cells
Method: as §1

[7] = target: T3, integrin αvβ8 on human ovarian …; assay: competition flow cytometry on OVCAR3 cells: fixed ADWA11 2.4 (chimeric, murine IgG2a CH2/CH3) with titrated fully human C6D4 F12, 15 min at 4 °C, ADWA11 2.4 detected with anti-mouse (H+L) PE
Method: (§2) All antibodies were produced in CHO cells. […] Primary […] were incubated at 4° C. for 15 min.

[8] = target: T1, recombinant αvβ8 ectodomain; assay: sandwich ELISA: antibody coated at 2 µg/ml, recombinant integrin titrated, bound integrin detected with anti-αv 8B8-biotin and streptavidin-HRP
Method: ELISA plates were coated with antibodies (2 μg/ml), washed, blocked with BSA, and then recombinant integrins were added at the indicated concentrations. After a brief incubation at RT, wells were washed and bound integrin detected with biotin conjugated anti-αv (8B8-biotin, 1 μg/ml) followed by Streptavidin-HRP.

[9] = target: T1, recombinant αvβ8 ectodomain; assay: cell-based or functional assay
[10] = target: T3, integrin αvβ8 on human ovarian …; assay: flow cytometry on OVCAR3 cells, 15 min at 4 °C, detection with anti-mouse (H+L)-PE, MFI against nM antibody
Method: as §2

[11] = target: T2, recombinant integrin αvβ6; assay: ELISA on coated integrin (1 µg/ml), antibody binding read as A450; antibody concentration not given
[12] = target: T1, recombinant αvβ8 ectodomain; assay: cell-based or functional assay; remark: listed apart in the source

T1 sequence (P06756 31-992 limits assumed, chain 1 of 2): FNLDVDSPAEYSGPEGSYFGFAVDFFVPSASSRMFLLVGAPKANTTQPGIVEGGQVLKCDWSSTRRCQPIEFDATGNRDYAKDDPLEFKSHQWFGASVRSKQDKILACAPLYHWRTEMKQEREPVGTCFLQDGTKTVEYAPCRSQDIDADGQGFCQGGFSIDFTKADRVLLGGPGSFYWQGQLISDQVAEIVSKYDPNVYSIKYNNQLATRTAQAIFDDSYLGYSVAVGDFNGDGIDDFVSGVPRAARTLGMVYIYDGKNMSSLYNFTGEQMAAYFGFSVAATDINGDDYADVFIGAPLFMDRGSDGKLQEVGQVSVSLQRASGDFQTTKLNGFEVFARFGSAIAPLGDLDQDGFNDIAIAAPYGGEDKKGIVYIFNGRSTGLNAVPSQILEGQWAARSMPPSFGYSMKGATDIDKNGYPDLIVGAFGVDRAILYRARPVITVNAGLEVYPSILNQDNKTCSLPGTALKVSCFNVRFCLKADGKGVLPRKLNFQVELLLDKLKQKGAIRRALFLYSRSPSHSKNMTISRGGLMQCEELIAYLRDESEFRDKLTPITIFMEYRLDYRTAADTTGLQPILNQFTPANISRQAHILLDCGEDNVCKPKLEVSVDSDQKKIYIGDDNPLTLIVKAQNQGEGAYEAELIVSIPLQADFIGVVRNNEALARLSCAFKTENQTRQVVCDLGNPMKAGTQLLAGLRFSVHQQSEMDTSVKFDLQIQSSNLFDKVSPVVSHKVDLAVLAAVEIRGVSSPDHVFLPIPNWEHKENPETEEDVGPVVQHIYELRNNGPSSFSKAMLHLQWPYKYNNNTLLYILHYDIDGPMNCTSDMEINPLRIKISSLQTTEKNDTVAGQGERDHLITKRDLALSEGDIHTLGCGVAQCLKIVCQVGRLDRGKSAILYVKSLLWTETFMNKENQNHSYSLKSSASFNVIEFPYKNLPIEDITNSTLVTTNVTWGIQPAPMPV
T1 sequence (P26012 43-684 limits assumed, chain 2 of 2): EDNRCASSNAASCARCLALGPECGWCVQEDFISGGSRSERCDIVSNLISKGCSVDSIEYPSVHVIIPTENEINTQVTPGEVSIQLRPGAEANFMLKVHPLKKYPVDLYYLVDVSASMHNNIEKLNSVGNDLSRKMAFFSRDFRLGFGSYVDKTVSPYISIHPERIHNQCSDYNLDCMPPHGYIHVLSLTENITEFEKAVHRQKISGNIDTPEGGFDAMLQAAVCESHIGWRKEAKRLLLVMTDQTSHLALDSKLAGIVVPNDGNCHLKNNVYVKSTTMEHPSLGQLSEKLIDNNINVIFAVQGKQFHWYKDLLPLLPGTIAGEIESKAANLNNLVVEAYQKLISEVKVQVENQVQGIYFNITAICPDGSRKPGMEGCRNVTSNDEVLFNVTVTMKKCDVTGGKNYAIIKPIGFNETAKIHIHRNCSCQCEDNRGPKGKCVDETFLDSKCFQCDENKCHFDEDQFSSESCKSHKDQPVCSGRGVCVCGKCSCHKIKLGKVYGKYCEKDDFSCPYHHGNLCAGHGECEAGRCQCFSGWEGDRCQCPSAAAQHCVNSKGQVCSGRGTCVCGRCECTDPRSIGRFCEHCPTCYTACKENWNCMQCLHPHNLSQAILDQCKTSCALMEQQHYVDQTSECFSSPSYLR
T2 sequence (P06756 31-992 limits assumed, chain 1 of 2): as the sequence (P06756 31-992 limits assumed, chain 1 of 2) above
T2 sequence (P18564 22-707 limits assumed, chain 2 of 2): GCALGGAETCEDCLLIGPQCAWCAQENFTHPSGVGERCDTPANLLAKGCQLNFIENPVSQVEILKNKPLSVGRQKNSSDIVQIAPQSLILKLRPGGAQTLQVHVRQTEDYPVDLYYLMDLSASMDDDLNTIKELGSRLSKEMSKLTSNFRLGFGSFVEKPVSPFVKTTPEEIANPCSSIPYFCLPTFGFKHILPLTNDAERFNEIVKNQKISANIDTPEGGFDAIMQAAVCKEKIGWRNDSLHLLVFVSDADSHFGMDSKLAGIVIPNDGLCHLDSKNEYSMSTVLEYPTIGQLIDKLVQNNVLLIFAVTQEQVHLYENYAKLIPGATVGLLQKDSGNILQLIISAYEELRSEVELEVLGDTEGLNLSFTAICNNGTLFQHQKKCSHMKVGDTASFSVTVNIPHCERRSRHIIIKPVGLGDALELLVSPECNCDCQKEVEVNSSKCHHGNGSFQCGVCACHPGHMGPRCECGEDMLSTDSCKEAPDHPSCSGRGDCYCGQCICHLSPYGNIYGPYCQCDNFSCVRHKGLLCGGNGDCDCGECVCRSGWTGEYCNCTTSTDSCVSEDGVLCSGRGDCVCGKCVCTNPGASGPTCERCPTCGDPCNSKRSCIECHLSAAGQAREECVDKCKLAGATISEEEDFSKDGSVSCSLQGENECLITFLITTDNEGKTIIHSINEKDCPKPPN
T3 sequence (P06756 31-1048, chain 1 of 2): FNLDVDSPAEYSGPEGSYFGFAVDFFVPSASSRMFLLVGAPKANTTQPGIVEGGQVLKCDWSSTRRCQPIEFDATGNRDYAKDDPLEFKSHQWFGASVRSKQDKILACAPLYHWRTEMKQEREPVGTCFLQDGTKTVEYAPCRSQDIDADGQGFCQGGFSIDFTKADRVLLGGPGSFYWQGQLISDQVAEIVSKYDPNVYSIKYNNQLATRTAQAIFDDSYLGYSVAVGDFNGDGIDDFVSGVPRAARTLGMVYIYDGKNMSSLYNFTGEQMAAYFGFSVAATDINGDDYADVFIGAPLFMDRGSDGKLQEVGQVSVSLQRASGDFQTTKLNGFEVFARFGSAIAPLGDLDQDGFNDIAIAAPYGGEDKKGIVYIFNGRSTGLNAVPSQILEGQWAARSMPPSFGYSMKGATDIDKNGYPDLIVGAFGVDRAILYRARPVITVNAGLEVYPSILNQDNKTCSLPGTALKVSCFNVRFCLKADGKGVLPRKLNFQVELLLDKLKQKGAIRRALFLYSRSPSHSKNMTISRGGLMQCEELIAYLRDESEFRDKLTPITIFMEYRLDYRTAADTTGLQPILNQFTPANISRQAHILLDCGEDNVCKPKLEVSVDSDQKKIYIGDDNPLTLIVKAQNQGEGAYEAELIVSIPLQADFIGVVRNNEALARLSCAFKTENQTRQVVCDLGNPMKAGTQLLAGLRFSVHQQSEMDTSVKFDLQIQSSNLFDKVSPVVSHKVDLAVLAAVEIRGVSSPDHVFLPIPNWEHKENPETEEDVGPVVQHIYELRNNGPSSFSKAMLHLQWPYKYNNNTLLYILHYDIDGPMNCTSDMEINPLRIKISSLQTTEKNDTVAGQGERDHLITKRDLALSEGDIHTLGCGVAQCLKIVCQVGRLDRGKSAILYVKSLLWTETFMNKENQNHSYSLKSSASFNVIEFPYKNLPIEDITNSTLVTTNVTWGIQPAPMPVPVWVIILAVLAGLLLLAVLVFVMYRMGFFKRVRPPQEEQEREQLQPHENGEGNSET
T3 sequence (P26012 43-769, chain 2 of 2): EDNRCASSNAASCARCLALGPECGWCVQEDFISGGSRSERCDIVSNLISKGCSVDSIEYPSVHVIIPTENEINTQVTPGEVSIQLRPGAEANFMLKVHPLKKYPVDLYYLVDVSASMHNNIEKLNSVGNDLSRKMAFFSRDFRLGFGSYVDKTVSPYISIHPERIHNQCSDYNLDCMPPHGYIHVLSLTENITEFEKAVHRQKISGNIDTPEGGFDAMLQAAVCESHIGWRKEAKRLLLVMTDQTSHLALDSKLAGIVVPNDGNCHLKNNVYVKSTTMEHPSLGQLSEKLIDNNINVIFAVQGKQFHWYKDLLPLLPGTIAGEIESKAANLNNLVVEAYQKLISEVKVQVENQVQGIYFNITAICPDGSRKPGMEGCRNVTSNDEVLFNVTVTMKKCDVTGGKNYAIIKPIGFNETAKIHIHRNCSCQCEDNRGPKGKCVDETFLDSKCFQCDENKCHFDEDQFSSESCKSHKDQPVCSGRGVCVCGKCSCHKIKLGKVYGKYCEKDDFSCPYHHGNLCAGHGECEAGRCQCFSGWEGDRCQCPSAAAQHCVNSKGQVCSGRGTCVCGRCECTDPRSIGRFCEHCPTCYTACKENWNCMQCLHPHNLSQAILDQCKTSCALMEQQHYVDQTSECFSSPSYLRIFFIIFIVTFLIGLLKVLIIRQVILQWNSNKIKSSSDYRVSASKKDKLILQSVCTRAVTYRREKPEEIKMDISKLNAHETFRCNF
Chain of recombinant integrin αvβ3 (P06756 31-992 limits assumed, chain 1 of 2): as the sequence (P06756 31-992 limits assumed, chain 1 of 2) above
Chain of recombinant integrin αvβ3 (P05106 27-718 limits assumed, chain 2 of 2): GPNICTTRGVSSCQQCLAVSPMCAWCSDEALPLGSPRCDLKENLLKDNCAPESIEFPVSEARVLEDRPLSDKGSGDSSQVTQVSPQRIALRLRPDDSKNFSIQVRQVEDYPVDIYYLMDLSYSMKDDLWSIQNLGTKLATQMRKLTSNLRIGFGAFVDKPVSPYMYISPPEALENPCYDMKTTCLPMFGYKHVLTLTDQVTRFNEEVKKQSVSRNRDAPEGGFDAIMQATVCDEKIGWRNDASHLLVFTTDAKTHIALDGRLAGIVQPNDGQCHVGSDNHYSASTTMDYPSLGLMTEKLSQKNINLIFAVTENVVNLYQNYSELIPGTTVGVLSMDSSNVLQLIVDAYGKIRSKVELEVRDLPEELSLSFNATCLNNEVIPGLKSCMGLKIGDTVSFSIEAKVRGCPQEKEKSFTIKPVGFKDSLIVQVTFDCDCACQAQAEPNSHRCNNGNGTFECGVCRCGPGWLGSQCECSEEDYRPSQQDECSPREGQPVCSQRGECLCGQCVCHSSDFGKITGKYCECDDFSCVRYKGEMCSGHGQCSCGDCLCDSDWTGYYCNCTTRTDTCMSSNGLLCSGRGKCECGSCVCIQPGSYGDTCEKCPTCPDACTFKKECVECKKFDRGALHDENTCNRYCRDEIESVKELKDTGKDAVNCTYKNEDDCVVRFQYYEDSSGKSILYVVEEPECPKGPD

Kd [1]: 1.3 nM
B1: C6D4 IgG 2a (antibody, V domains shown)
VH: QIQLVQSGPELKKPGETVKISCKASGYTFTDYSMHWVKQAPGKGLKWVARINTETGEPTFADDFRGRFAVSLETSASTAYLQINNLKNEDTATYFCAIFYYGRDSWGQGTTLTVSS
VL: DIVMTQSPSSLAVSAGEKVTMSCKSSQSLLNSRTRKNYLAWYQQKPGQSPRLLIYWASTRESGVPDRFTGSGSGTDFTLTISSVQAEDLAVYYCKQSYNLLSFGAGTKLELKR
notes: IgG2a

binding result [2]: no binding | binding result [3]: no binding | binding result [4]: no binding | binding result [5]: no binding | Kd [6]: 2.5 nM
B2: antibody with heavy chain with the C6 VH1 (D to K) mutation expressed with light chain D4 (antibody, V domains shown)
VH: QIQLVQSGAEVKKPGASVKISCKASGYTFTKYSMHWVRQAPGQGLEWVARINTETGEPTFADDFRGRFTVTLDTSTSTAYLEIRSLRSDDTAVYFCAIFYYGRDTWGQGTTLTVSS
VL: EIVMTQSPATLSVSPGERVTMSCKSSQSLLNSRSRKNYLAWYQQKPGQAPRLLIYWASTRESGVPARFSGSGSGTEFTLTISSVQSEDFAVYYCKQSYNLLSFGQGTVLEIKR
notes: Single mutant of HuC6D4

IC50 (read off the curve) [7]: ~0.1 µg/mL
B3: fully human C6D4 F12 (version of huC6D4F12 where CH1-3 were all human) (antibody, V domains shown)
VH: B2 VH
VL: B2 VL with N31H

binding result [8]: binds
B4: C6-TGFβ1RGD (antibody, V domains shown)
VH: B2 VH with K31D
VL: EIVMTQSPATLSVSPGERVTMSCKSSQSLLRRGDLATIHGNALAWYQQKPGQAPRLLIYWASTRESGVPARFSGSGSGTEFTLTISSVQSEDFAVYYCKQSYNLLSFGQGTVLEIKR
notes: also called C6-TGF-TGFβ1RGD

IC50 of inhibition of TGF-β activation (TMLC reporter cells expressing TGF-β1/GARP on immobilized αvβ8) [9]: 0.75 µg/mL | Kd [10]: 1.4 nM | Kd [6]: 3.1 nM | binding result [11]: no binding | inhibition of TGF-β activation (immobilized αvβ8 at 1 µg/ml and TGF-β1/GARP expressing TMLC reporter cells); fold against ADWA11 2.4 [12]: ~77 fold | Kd [1]: 0.00236 nM
B5: HuC6D4F12 (antibody, V domains shown)
VH: B2 VH
VL: B2 VL with N31H
notes: Whole antibody; also called HC6D4F12; HuC6D412

Kd [6]: 4.9 nM | Kd [1]: 0.0821 nM
B6: HuC6D4 (antibody, V domains shown)
VH: B2 VH with K31D
VL: B2 VL
notes: Whole antibody; also called Human C6D4; Humanized C6D4

binding result [2]: no binding | binding result [3]: no binding | binding result [4]: no binding | binding result [5]: no binding | Kd [6]: 4.7 nM
B7: antibody with light chain D4 VL1 (N to H) mutation expressed with heavy chain C6 (antibody, V domains shown)
VH: B2 VH with K31D
VL: B2 VL with N31H
notes: Single mutant of HuC6D4

IC50 of inhibition of TGF-β activation (TMLC reporter cells expressing TGF-β1/GARP on immobilized αvβ8) [9]: 57.7 µg/mL | Kd [10]: 26.3 nM
B8: ADWA11 2.4 (chimeric version: humanized variable domains and CH1, murine IgG2a CH2/CH3) (antibody, V domains shown)
VH: EVQLVESGGGLVQPGGSLRLSCAASGFNIKDYYMNWVRQAPGKGLEWVGWIDPDQGNTIYEPKFQGRFTISADTSKNSAYLQMNSLRAEDTAVYYCARRLLMDYWGQGTLVTVSS
VL: DIQMTQSPSSLSASVGDRVTITCRSTKSLSHFNGNTYLFWYQQKPGKAPKRLIYYMSSLASGVPSRFSGSGSGTDFTLTISSLQPEDFATYYCQQSLEYPFTFGGGTKVEIKR
